Results: the nanobody polyreactivity screen of Harvey et al. (2022)

Assay: yeast display, Sf9 membrane polyspecificity reagent, FACS + sequencing; frameworks hold sequencing errors
Procedure, shortened: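 Nanobodies came from a synthetic yeast display library in Saccharomyces cerevisiae BJ5465, induced with galactose for 36–48 hours and stained for 1 hour at 4 °C with 10% biotinylated, detergent-solubilized Sf9 membrane reagent. Cells were enriched on streptavidin microbeads and then FACS-sorted, with low and high (top ~1%) gates set on anti-HA fluorescence for expression and streptavidin fluorescence for reagent binding. Each polyreactivity label reflects the gate a clone came from. Genes were amplified by colony PCR, sequenced by MiSeq 2 × 250 and filtered by CDR length.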

Sequence | polyreactivity (PSR sort gate)
QVQLVESGGGLVQAGGSLRLSCAASGRTFYFYAMGWYRQAPGKERELVAAISWTGGITYYADSVKGRFTISRDNAKNTVYLQMNSLKPEDTAVYYCAAGYYYKVYWGQGTQVTVSS | low polyreactivity
QVQLVESGGGLVQAGGSLRLSCAASGVILYFHAMGWYRQAPGKERELVAAITSDGGSTYYADSVKGRFTISRDDAKNTVYLQMNSLKPEDTAVYYCAADASTWYTEEYWGQGTQVTVSS | low polyreactivity
QVQLVESGGGLVQAGGSLRLSCAASGRTFAPYAMGWYRQAPGKERELVARITWSGTDTYYADSVKGRFTISRDNAKNNVYLQMNSLKPEDTAVYYCAADARYSRRYYYWGQGTQVTVSS | low polyreactivity
QVQLVESGGGLVQAGGSLRLSCAASGRIFVRNAMGWYRQAPGKERELVAAITRTGASTYYADSVKGRFTISRDNAKNTVYLQMNSLKPEDTAVYYCAAVWGWPYWVYRYDYWGQGTQVTVSS | high polyreactivity
QVQLVESGGGLVQAGGSLRLSCAASGFTFGDNAMGWYRQAPWKERELVADIDSDGSTYYADSVKGRFTISRDNAKNTFYLEMNSLKPEDNAVYYCAKDQYYSLGPYSFGFDYWGQGTQVNVSS | low polyreactivity
QVQLVESGGGLVQAGGSLRLSCAASGLIFVGYAMGWYRQAPGKERELVAAITSGGSTKYADSVKGRFTISRDNAKNTVYLQMNSLKPEDTAVYYCAASGWRNWWSARNYYWGQGTLVTVSS | low polyreactivity
QVQLVESGGGLVQAGGSLRLSCAASGFTFGWYAMGWYRQAPGKEREFVAAISRSGGSTYYADSVKGRFTISRDNAKNTVYLQMNSLKPEDTAVYYCAAYIIGDTHAEYDYWGQGTQVTVSS | high polyreactivity
QVQLVESGGGLVQAGGSLRLSCAASGIIFYDNAMGWYRQAPGKERELVAAISWGGGDTYYADSVKGRFTISRDNAKNTVYLQMNSLKPEDTAVYYCAAGNLPDYDYWGQGTQVTVSS | low polyreactivity
QVQLVESGGGLVQAGGSLRLSCAASGSIFKYYAMGWYRQAPGKERELVAAISNGGSTNYADSLKGRFTISRDNAKNTVYLQMNSLKPEDTAVYYCAAGWFGYSAKYDYWGQGTRVTVSS | high polyreactivity
QVQLVESGGGLVQAGGSLRLSCAASGRTFGWYSMGWYRQAPGKERELVAAINNSVDITYYSDSVKGRFTISRDNAKNSVYLQMNSLKPEDTAVYYCNRDARSGFVTIYATDYDYWGQGTQVTVSS | low polyreactivity
QVQLVESGGGLVQAGGSLRLSCAASGSIFQYYVMGWYRQAPGKERELDAAIRRSGTTYYADSVKGRFTISRDNAKNTVYLQMNSLKPEDTAVDYCNADSIYYYYLIEYEYWGQGSQVTVSS | low polyreactivity
QVQLVESGGGLVQAGGSLRLSCAASGSTFRFYAMGWYRQAPGKERELVAAINGSGGSTYYADSVKGRFTISRDIAKNSVYLQMNSLKPEDTAVYYCAVLYRYGYDYWGQGTQVTVSS | low polyreactivity
QVQLVDSGGGLVQAGGSLRLSCAASGRTFSPYMGWYRQAPGKEREFVAAISKSGGRTYYADSVKGRFTISRDNAKNTVYVQMNSLKPEDTAVYYCAAGAWRGPYSGYYYWGQGTQVTVSS | low polyreactivity
QVQLVESGGGLVQAGGSLRLSCAASGLIFRWYAMGWYRQAPGKERELVAAISRRGGTTNYADSVKGRFTISRDNAKNTVYLQMNSLKPEDTAVYYCAADYQSVGGAEYDYWGQGTQVTVSS | high polyreactivity
QVQLVESGGGLVQAGGSLRLSCAASGFTFGWYTMGWYRQAPGKERELDAAISLNGGSTYYADSVKGRFTISRDNAKNTVYLQMTSLKPEDTAVYYCAIRYRWPYYPYVYWGQGTQVTVSS | low polyreactivity
QVQLVESGGGLLQAGGSLRLSCAASGSTYIGNAMGWYRQAPGKERELVAAITSGGSTNYADSVKGRFTISRDNAKNTVYLQKNSLKPEDTAVYYCAKPSRWGWTGFYAYDYWGQGTQVTVSS | low polyreactivity
QVQLVESGGGLVQAGGSHRLSCAASGIIIRYYAMGWYRQAPGKERDLVAAISGGGSTYYADSVKGRFTISRDNAKNTVYLQMNRLKPEDTAVYYCAAAGRWYYHGYNYWGQGTQVTVSS | high polyreactivity
QVQLVESGGGLVQAGGSLRLSCADSGRTFSTYAMGWYRQAPGKERELVAAISSGGGRTYYADSVKGRFTISRDNAKNTVYLQINSLKPEDTAVYYCAADRYFRSRRSYEYWGQGTQVTVSS | low polyreactivity
QVQLVESGGGLVQAGGSLRLSCAASGITFVGNAMGWYRQAPGKERELVAGIRGNGGSTYYADSVKGRFTISRDNAKNTVYLQMNSLKPEDTAVYYCAAAAYYADFDYWGQGTQVTVSS | low polyreactivity
QVQLVESGGGLVQAGGSLRLRCAASGFTFHRYAMGWYRPAPGKERELVAGITRRSGSTFYADSVKGRFTISRDNAKNTVYLQMNSLKPEDTAVYYCAATVPGLHWIYDYWGQGTQVTVSS | high polyreactivity
QVQLVESGGGLVQAGGSLRLSCAASGRTLARNAMGWYRQAPGKERELVASINGRTTRTYYADSVKGRFTISRDNAKNTVYLQMNSLKPEDTAVYYCAADPPGYVYGKRYYWGQGTQVTVSS | high polyreactivity
QVQLVESGGGLVQAGGSLRLTCAASGSIFYWYAMGWYRQAPGKERELVAAISSSGSTNYADSVKGRFTISRDNAKNTVYLQMNSLKPEDTAVYYCGAYRTGYNGWGYGYWGQGTQVTVSS | high polyreactivity

Sequence | polyreactivity (PSR sort gate)
QVQLVEAGGGLVQAGGSLRLSCAASGSIFKSYAMGRYRQAPGKEREFVASITKSGGTTYYADSVKGRFTISRDHAKNTVYLQMNSLKPEDTAVYYCAADWYRSSWTYNYLGQGTQVTVSS | low polyreactivity
QVQLVESGGGLVQAGGSLRLSCSASGLTFYSYTKGWYRQAPGKERELVAAISYSGGNTYYADSVKGRFTISRDNAKNTVYLQMNSLKQEDTAVYYCNAYFRWYWLIEYDYWGQGTQVTVSS | high polyreactivity
QVQLVESGGGLVQAGGSLRLSCAPSGSIFAQYAMGWYRQAPGKERELVATISSVGSTNYADSVKGRFTISRDNAKNTVYLQMNSLKPEDTAVYYCNAVRSGWGYFYGLNYWGQGTQVTVSS | low polyreactivity
QVQLVESGGGLVQAGGSLRLSGAASGFIFVRYAMGWYRQAPGKERELVAAITRRGGSTHYADSVKGRFTISRDNAKNTVYLQMNSLTPEDTAVYYCAAGRQYYYLDRFPRVQGDYWGQGTQVTVSS | high polyreactivity
HVQLQESGGGLVQAGGSLRLSCAASGSIFQATYMGWYRQAPGKEREFVASITYGSITNYADSVKGRFTIGRDNAKDTLYLQMNSLKPEDTAVYYCAVDRHYIPAFHYWGQGTEVTVSS | low polyreactivity
QVQLVESGGGLDQAGGSLRLSCAASGRIFRYYTMGWYRQAPGKERELVAAISTSDDSTNYADSVKGRFTISRDNAKNTVYLQMNSLKPEDTAVYYCAADQSRVGSYQDYDYWGQGTQVTVSS | low polyreactivity
QVQLVDSGGGLVQAGGSLRLSCAASGFIFSAYTMGWYRQAPGKERELVAAISGSGVGTYYADSVKGRFTISRDNAKNTVYLQMNSLKPEDTAVYYCNAADYTAYYWEYYYWGQGTQVTVSS | low polyreactivity
QVQLVESGGGLVQAGGSLPLSGAPSGSTFGYNTMGWSRQAPGKESELVAAITSGGRTYYADSVKGRFTISRDNAKNTVYLQRNSLKPEDTAVYYCAAYYWWGYPENDYWVQGTQVTVSS | high polyreactivity
QVQLVESGGGLVQAGGSLRLSCAASGSIFVEYAMGWYRQAPGKERELVSAIRWRGGSTNYADSVKGRFTISRDTAKNTVYLQMNSLNREDTAVYYCNARHPASGDLYRMDYWGQGTQVTVSS | low polyreactivity
QVQLVESGGGLVQAGGSLRLSCAASGRIISYNDMGWYRPAPGKERELVAAISWGGGSTYYADSVKGRFTISRDNAKNTVYLQMNSLKPEDTAVYYCSKGWYRIKRNDYWGQGTQVTVSS | low polyreactivity
QVQLVESGGGLVQAGGSHRLSCAASGFTFSAYTMGWYRQAPGKERELVAAISWRGTSTYYADSVKGRFTISRDNAKNTVYLQMNSLKPEDTAVYYCAVRWPSARIPVKLDYWGQGTQVNVSS | high polyreactivity
QVQLVESGGGLVQEGGSLRLSCAASGFTFSLNTMGWYRQAPGKERELVAAINSGDSTYADSVKGRFTISRDNAKNTVYLQMNSLKPEDTAVYYCNADPDWWYPYNYWGQGTQVTVSS | low polyreactivity
QVQLVESGGGLVQAGGSLRLSCAASGRIFTYYGMGWYRQARGKERELVAAISSSGDSTFYADSVKGRFTISRDNGKNTVYLQMNSLKPEDTAVYYCAADYYYVWYDYWGQGTQVTVSS | low polyreactivity
QVQLVESGGGLVQAGGSLRLSCAASGRTFYRYAMGWYRQAPGKERELVATISSSGRTYYADSVKGRFTISRDNAKNTVYLQMNSLKPEDTAVYYCRFTIKHGSWGQGTQVTVSS | high polyreactivity
QVQLVESGGGLVQAGGSLRLSCAASGSIFSSYAMGWYRQAPGKERELVAVITSGDSTNYADSVKGRFTISRDNAKNTVYLQMNSLKPEDTAVYYCNADSYGGSDRYDYWGQGTQVTVSS | low polyreactivity
QVQIVESGGGLVQAGGSLRLSCAAYGFTFYPYAMGWYRQAPGKERELVAAITRGGSTYYADSVKGRFTISRDNEKNTVYLQMNSLKPEDTAVYYCNAYWQGYGYDYWGQGTQVTVSS | low polyreactivity
QVHLVESAGGLVQAGGSLRLSCAASGRIFTPYAMGWYRQAPGKERELVAVIRDGSTYYADSVKGRFTISRDNAKNTVYLQMNSLKPEDSAVYYCRYDIWVWWSGAYDYWGQGTQVTVSS | low polyreactivity
QVQLVDSGGGLVQAGGSLRLSCAASGRTFGVNTMGWYRQAPGKERELVAAISWSGGRTYYADSVKGRFTISRDNAKNTVYLQMNSLKPEDTAVYYCAASWYSRASLYDYWGQGTQVTVSS | high polyreactivity
QVQLVESGGGLVQAGGILRISCAASGRNLSRNAMGWYRQAPGKERELVAAISRSGSRTYYADSVKGRFTISRDNAKNSVYLLMNSLKPEDTAVYYCNAESYLSGWWYDYWGQGTQVTVSS | high polyreactivity
QVQLVESGGGLVQAGGSLRLSCAASGITFGSNAMGWYRQAPGKERELVAAISRSGGRTYYADSVKGRFTISRDNAKNTVSLQMNSLKPEDTAVYDCATDSYTTGEYWGQGTQVTVSS | high polyreactivity
QVQLVESRGGLVQAGCSLRLRCAASGFIFSWYAMGWYRHAPGKERELDAAISASGTSTYYADSVKGRFTISRDNAKNTVYLQMNSLKPEDTAVYYCAAEFVTEYLYGFVYEYDSWGQGTQVTVSS | low polyreactivity
